From patent US12673971B2, “Amyloid-β aggregation inhibitor, pharmaceutical composition foramyloid-β aggregation disease, and use application of same” (O-FORCE CO., LTD, priority 2020, dated 2026)

What was measured:
Aβ25-35 aggregates = molecular target: T1, Aβ25-35 aggregates (Homo sapiens, UniProt P05067); assay: Dissociation of pre-formed Aβ25-35 aggregates (ThT fluorescence); format: biochemical; conditions: 40 μL of 10 mmol/L peptide added to 4000 μL reaction solution with aggregates of 0.1 mM Aβ25-35 (24 h, 37° C.); 4 hr vs 0 hr, FIG. 7
T1 construct: The Aβ25-35 is a peptide constituted by 11 amino acid residues consisting of the 25th to 35th amino acid residues
Experimental: A reaction solution with the following composition was prepared and incubated at 37° C. for 24 hours to form aggregates of Aβ25-35. After incubation, the fluorescence intensities of the reaction solution with the following composition to which Aβ25-35 was added and a reaction solution to which water was added instead of Aβ25-35 were measured as in Example 1.
Then, 40 μL of 10 mmol/L Peptide 1 or Peptide 2 was added to 4000 μL of the reaction solution in which the aggregates were formed (0 hr), the mixture was incubated at 37° C., and the change in fluorescence intensity over time was measured (n=3). As a control, a reaction solution to which water was added instead of Peptide 1 and Peptide 2 was also measured at 0 hr in the same way. Then, the percentage (%) of decrease in fluorescence intensity after 4 hr was obtained from the fluorescence intensity at 0 hr.

C57BL/6 mice [1] = assay: Y-maze (short-term memory assessment) test; format: in vivo; conditions: 2 μL of 0.5 μg/μL Aβ25-35 and 2 μL of 0.25 μg/μL Peptide 2 into hippocampal CA1; days 11, 27 and 39; vs negative control group (Aβ25-35 only), FIG. 4
Experimental: In this example, 2 μL of 0.5 μg/μL Aβ25-35 and 2 μL of 0.25 μg/μL Peptide 2 were directly administered using a micro syringe to the CA1 area of the hippocampus of the brain of the administration group of C57BL/6 mice (7 to 13 months old mice) (n=3). In a similar manner, 2 μL of 0.5 μg/μL Aβ25-35 was directly administered using a micro syringe to the CA1 area of the hippocampus of the brain of the negative control group of C57BL/6 mice (n=3). Neither 2 μL of Aβ25-35 nor Peptide 2 was administered to the positive control group of C57BL/6 mice (n=3). Each group was then given a Y-maze (short-term memory assessment) test on days 11, 27, and 39 after administration, and an object recognition test over 3 days starting from day 49. • Administration group (7 months old): Aβ25-35(+)/GSGFK(+) • Negative control group (7 months old): Aβ25-35(+)/GSGFK(−) • Positive control group (13 months old): Aβ25-35(−)/GSGFK(−)
The Y-maze test was conducted in a general manner under the following conditions. That is to say, mice were placed such that their noses faced the wall at an end of one particular arm among the three arms. The mice were allowed to move freely for 10 minutes, and their behavior was captured on a monitor of an analyzer (product name: Time YM1, manufactured by O'hara & Co., Ltd.) to calculate the alternation behavior rate (alternation behavior (%)).

Aβ25-35 [2] = molecular target: T2, Aβ25-35 (Homo sapiens, UniProt P05067); assay: ThT fluorescence of the solutions administered to the mouse groups; format: biochemical; conditions: 0.5 μg/μL Aβ25-35 and 0.25 μg/μL Peptide 2 mixed in equal amounts, 37° C., day 11, vs Aβ25-35 solution, FIG. 3
T2 construct: The Aβ25-35 is a peptide constituted by 11 amino acid residues consisting of the 25th to 35th amino acid residues
Experimental: In parallel with the administration to the mice in each group, the fluorescence intensity was measured for the solutions administered to each group. Specifically, a mixed solution obtained by mixing 0.5 μg/μL Aβ25-35 and 0.25 μg/μL Peptide 2 in equal amounts, which was the same as that administered to the administration group, and a 0.5 μg/μL Aβ25-35 solution, which was the same as that administered to the negative control group, were each added in an amount of 100 μL per well, and 10 μL of 1 mmol/L ThT was further added to the well immediately before measurement. These reaction solutions were each reacted at 37° C., and the fluorescence intensity was measured as in Example 1 above.

C57BL/6 mice [3] = assay: Object recognition test (ORT); format: in vivo; conditions: administration group Aβ25-35(+)/GSGFK(+), day 52 (test over 3 days from day 49), FIG. 6
Experimental: In this example, 2 μL of 0.5 μg/μL Aβ25-35 and 2 μL of 0.25 μg/μL Peptide 2 were directly administered using a micro syringe to the CA1 area of the hippocampus of the brain of the administration group of C57BL/6 mice (7 to 13 months old mice) (n=3). In a similar manner, 2 μL of 0.5 μg/μL Aβ25-35 was directly administered using a micro syringe to the CA1 area of the hippocampus of the brain of the negative control group of C57BL/6 mice (n=3). Neither 2 μL of Aβ25-35 nor Peptide 2 was administered to the positive control group of C57BL/6 mice (n=3). […]
The object recognition test (ORT) from day 49 was conducted as follows. […] For each group, the speed of movement of the mice in the cage was measured, as well as the percentage (%) of time they stayed in the center region of the cage (the inner region being at least 7.5 cm away from a side wall of the cage).
After one day, two identical objects were placed in the cage and the mice were allowed to explore freely for one hour (sample phase). […] Also, the approach time of the mice to each object was measured in each of the sample and test phases. The percentage of the exploration time for the object on the right side with respect to the total exploration time was then determined (100× right side exploration time/total exploration time (%)).

Aβ25-35 [4] = molecular target: T2, Aβ25-35; assay: Aggregation inhibition assay (thioflavin T fluorescence); format: biochemical; conditions: 0.1 mM peptide, 0.1 mM Aβ25-35, 0.1 mM ThT, Tris-HCl pH 7.5, 37° C., FIG. 1; for fluorescence intensity of the reaction solution after 8 and 24 hours: vs negative control; for fluorescence intensity of the reaction solution 4 hours after incubation: vs negative control (Aβ25-35 only)
Text: An Aβ-derived fragment peptide was used for aggregation of Aβ. Aβ25-35, which has high aggregability, was selected as the fragment peptide. The Aβ25-35 is a peptide constituted by 11 amino acid residues consisting of the 25th to 35th amino acid residues in the full length sequence of human-derived Aβ (GSNKGAIIGLM (SEQ ID NO: 4), hereinafter also referred to as Ab25-35).
The fluorescent dye thioflavin T (ThT) binds to Ab aggregates and emits strong fluorescence upon binding, and thus the increase or inhibition of aggregation can be determined by measuring the fluorescence intensity. Thus, the inhibition of aggregation of Aβ25-35 by Peptide 1 (GSGNR (SEQ ID NO: 1)) and Peptide 2 (GSGFK (SEQ ID NO: 2)) was checked using ThT.
Specifically, a reaction solution with the following composition was prepared and dispensed into wells such that the amount of the reaction solution per well was 300 μL, and incubated at 37° C., and the change in fluorescence intensity over time was measured using a measurement device (product name Cytation5, manufactured by BioTek) (n=3). The measurement wavelengths were set such that the excitation wavelength (ex) was 444 nm and the emission wavelength (em) was 480 nm. As a control, a reaction solution to which water was added instead of Peptide 1 and Peptide 2 was also measured in the same way.

Aβ25-35 [5] = molecular target: T2, Aβ25-35; assay: Concentration assay (ThT fluorescence, varied final peptide concentration); format: biochemical; conditions: for fluorescence intensity compared with the negative control: 37° C.
Experimental: The concentrations of Peptide 1 (GSGNR (SEQ ID NO: 1)) and Peptide 2 (GSGFK (SEQ ID NO: 2)) with respect to Aβ25-35 were checked. Unless otherwise indicated, measurements were performed according to (2) above.
First, as for Peptide 2 (GSGFK (SEQ ID NO: 2)), 200 μL of mixed solution with the composition shown in Table 2 below was added per well, 10 μL of 2 mmol/L ThT was further added to the well immediately before measurement, and this reaction solution was incubated at 37° C. The change in fluorescence intensity 4 hours after the start of measurement was measured using the above-mentioned measurement device (n=3). Furthermore, reaction solutions with the following composition but with different final concentrations of Peptide 2 were also measured in the same way. As a negative control, a reaction solution with the following composition to which neither Peptides 1 nor 2 was added was also measured in the same way.
Next, as for Peptide 1 (GSGNR (SEQ ID NO: 1)), 200 μL of mixed solution with the composition shown in Table 2 above was added per well, 10 μL of 2 mmol/L ThT was further added to the well immediately before measurement, and this reaction solution was incubated at 37° C. The change in fluorescence intensity 8 hours after the start of measurement was measured using the above-mentioned measurement device (n=6). Furthermore, reaction solutions with the composition above but with different final concentrations of Peptide 1 were also measured in the same way. As a negative control, a reaction solution with the composition above to which neither Peptides 1 nor 2 was added was also measured in the same way.

[6] = Peptide 2, with respect to 100 μmol/L Aβ25-35, 4 hours, FIG. 2(A)
[7] = Peptide 1, with respect to 100 μmol/L Aβ25-35, 8 hours, FIG. 2(B)

Substance	decrease in fluorescence intensity 4 hours after peptide addition to pre-formed aggregates (Aβ25-35 aggregates)	alternation behavior rate (short-term memory) (C57BL/6 mice [1])	fluorescence intensity of the mixed solution on day 11 (Aβ25-35 [2])	percentage of exploration time for the object on the right side, test phase compared with sample phase (C57BL/6 mice [3])	fluorescence intensity of the reaction solution after 8 and 24 hours (Aβ25-35 [4])	fluorescence intensity of the reaction solution 4 hours after incubation (Aβ25-35 [4])	fluorescence intensity compared with the negative control (Aβ25-35 [5]; Peptide 2, 100 μmol/L Aβ25-35, PBS, 4 hours after start of measurement, FIG. 2(A))	final concentration at which aggregation was inhibited in a particularly excellent manner (Aβ25-35 [5]; [6])	final concentration at which aggregation was more effectively inhibited (Aβ25-35 [5]; [6])	final concentration at which aggregation was significantly inhibited sufficiently (Aβ25-35 [5]; [6])	fluorescence intensity compared with the negative control (Aβ25-35 [5]; Peptide 1, 100 μmol/L Aβ25-35, PBS, 8 hours after start of measurement, FIG. 2(B))	final concentration at which aggregation was inhibited in a particularly excellent manner (Aβ25-35 [5]; [7])	final concentration at which aggregation was significantly inhibited sufficiently (Aβ25-35 [5]; [7])
GSGFK [Peptide 2]	significant decrease in fluorescence intensity	short-term memory is maintained as with the positive control group	did not show an increase in fluorescence intensity	significant increase in the percentage of exploration time for the object on the right side in the test phase	did not increase after 8 and 24 hours	slightly increased 4 hours after incubation, but it was well below the negative control	significantly reduced the fluorescence intensity	around 10 μmol/L	≥ 10 µmol/L	≥ 5 µmol/L			
GSGNR [Peptide 1]	significant decrease in fluorescence intensity				decreased significantly compared with the negative control after 8 and 24 hours	had increased 4 hours after incubation					significantly reduced the fluorescence intensity	around 10 μmol/L	≥ 1 µmol/L
